{
  "source": "paper PMC9630439",
  "key": {"[1]": {"biological_target": "fully assembled GPa3b17 TCR (TCRαβ/CD3δγε2ζ2 complex, CD3 cytosolic domains truncated, CD3-δ tagged with GFP2) (human) (UniProt P07766)", "assay": "flow cytometry on cells; CHO cells transduced with lentivirus combinations, stained with Alexa Fluor 647-labelled gp100/HLA-A2, 30 min at 4 °C in the dark"}, "[2]": {"biological_target": "GPa3b17 TCR complex expressed without CD3-ζ (TCR-αβ/CD3-δγε2) (human) (UniProt P07766)", "assay": "flow cytometry on cells; CHO cells transduced with lentivirus combinations, stained with Alexa Fluor 647-labelled gp100/HLA-A2, 30 min at 4 °C in the dark"}},
  "note": "Values joined by “and” are separate entries in the source; they are usually repeats but may differ in a detail not shown here. Identical values can stand only once.",
  "data": [
    {"substance": "gp100/HLA-A2 (soluble gp100 peptide / HLA-A*02:01 / β2-microglobulin monomer with C-terminal HPC-4 epitope) (from UniProt P61769 22-119) (peptide-MHC)", "values": [
      {"measurement": "median fluorescence intensity following pMHC staining", "setting": "[1]", "value": "135000 and 144000"},
      {"measurement": "median fluorescence intensity following pMHC staining", "setting": "[2]", "value": 116000}
    ]}
  ]
}
